According to article PMC12607630, “ZapC crosslinks FtsZ filaments through a dual-binding mechanism modulated by the intrinsically disordered linker of FtsZ in Escherichia coli” (mBio, 2025):
“And” between values parts separate entries of the source, which are not always exact repeats. Equal values may be shown once.

Key:
Test in all cases: BLI; 6×His-ZapC or its mutants (0.5 µM) loaded on Ni-NTA biosensors, untagged FtsZ or its variants in solution; Octet-Red96, 30°C, 1× Pol buffer (50 mM HEPES-NaOH pH 6.8, 50 mM KCl, 10 mM MgCl2); apparent Kd from the signal at the end of association against concentration, one-site fit; three repeats with mean (X) and SD
Details in all cases: both partners purified
[1] = target: T1, FtsZ F285S (untagged) (Escherichia coli, UniProt P0A9A6 1-383, F285S)
T1 construct: FtsZ of Escherichia coli with F285S (globular domain); Derivative of pLY17 by site-directed mutagenesis; insert starts at codon 2 as in pLY17; source: E. coli BL21(DE3), plasmid pLY19, purified (Ni-NTA); 6×His-SUMO tag removed with Ulp1; not shown: 6×His-SUMO, N-terminal, cleaved
T1 sequence (looked up): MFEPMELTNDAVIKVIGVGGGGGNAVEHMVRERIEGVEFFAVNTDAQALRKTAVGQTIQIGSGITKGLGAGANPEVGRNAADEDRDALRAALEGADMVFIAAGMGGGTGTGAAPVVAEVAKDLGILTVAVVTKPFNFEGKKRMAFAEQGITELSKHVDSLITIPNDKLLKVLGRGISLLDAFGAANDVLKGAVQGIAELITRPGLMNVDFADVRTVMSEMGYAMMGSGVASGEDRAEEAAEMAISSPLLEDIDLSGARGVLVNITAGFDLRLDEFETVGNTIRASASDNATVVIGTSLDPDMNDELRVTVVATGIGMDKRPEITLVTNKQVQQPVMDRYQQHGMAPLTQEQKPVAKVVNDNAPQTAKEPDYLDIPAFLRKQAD

[2] = target: T2, FtsZ 1-316 (untagged) (Escherichia coli, UniProt P0A9A6 1-316)
T2 construct: lacks the entire CTL and the CTP; source: E. coli BL21(DE3), plasmid pLY343, purified (Ni-NTA); 6×His-SUMO tag removed with Ulp1; not shown: 6×His-SUMO, N-terminal, cleaved
T2 sequence (looked up): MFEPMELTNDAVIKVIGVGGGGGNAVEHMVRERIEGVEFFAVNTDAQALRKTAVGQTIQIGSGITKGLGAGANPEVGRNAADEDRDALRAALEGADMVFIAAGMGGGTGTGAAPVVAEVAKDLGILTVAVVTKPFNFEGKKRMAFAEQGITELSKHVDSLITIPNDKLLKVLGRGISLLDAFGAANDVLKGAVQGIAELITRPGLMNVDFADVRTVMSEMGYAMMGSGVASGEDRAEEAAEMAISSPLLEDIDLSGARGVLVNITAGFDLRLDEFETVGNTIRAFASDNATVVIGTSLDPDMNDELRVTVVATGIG

[3] = target: T3, FtsZ D360Y (untagged) (Escherichia coli, UniProt P0A9A6 1-383, D360Y)
T3 construct: FtsZ of Escherichia coli with D360Y (CTL); Derivative of pLY17 by site-directed mutagenesis; source: E. coli BL21(DE3), plasmid pLY339, purified (Ni-NTA); 6×His-SUMO tag removed with Ulp1; not shown: 6×His-SUMO, N-terminal, cleaved
T3 sequence (looked up): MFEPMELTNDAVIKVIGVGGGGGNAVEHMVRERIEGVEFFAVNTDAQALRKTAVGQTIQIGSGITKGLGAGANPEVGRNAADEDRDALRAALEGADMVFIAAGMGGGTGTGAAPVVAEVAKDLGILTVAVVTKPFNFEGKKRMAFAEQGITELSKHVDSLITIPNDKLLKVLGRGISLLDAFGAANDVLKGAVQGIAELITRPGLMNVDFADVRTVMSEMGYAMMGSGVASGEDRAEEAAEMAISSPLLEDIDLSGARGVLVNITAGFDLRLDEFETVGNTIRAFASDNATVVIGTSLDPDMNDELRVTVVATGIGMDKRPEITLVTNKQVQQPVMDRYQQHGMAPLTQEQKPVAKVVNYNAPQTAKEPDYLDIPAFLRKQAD

[4] = target: T4, FtsZ 1-330 (untagged) (Escherichia coli, UniProt P0A9A6 1-330)
T4 construct: FtsZ of Escherichia coli, residues 1-330; lacks most of the CTL and the CTP; Primers BsaI-out-F and 330XbaI-out-R; forward primer starts at codon 2; source: E. coli BL21(DE3), plasmid pLY340, purified (Ni-NTA); 6×His-SUMO tag removed with Ulp1; not shown: 6×His-SUMO, N-terminal, cleaved
T4 sequence (looked up): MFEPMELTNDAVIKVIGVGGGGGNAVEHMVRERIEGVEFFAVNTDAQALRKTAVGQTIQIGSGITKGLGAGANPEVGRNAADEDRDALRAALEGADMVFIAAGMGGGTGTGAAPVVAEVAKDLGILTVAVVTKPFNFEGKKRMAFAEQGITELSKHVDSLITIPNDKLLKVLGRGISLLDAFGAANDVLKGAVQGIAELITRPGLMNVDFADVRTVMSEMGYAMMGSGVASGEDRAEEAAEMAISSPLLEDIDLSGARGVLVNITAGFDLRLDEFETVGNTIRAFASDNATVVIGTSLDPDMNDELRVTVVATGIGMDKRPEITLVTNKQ

B1: 6×His-ZapC (natural protein)
chain: not shown
notes: ZapC, FtsZ-associated protein of Escherichia coli; Construction of pSD323 is not described; also called His-tagged ZapC; source: E. coli, plasmid pSD323 (pQE80, Plac::6×His-ZapC), purified (Ni-NTA); not shown: His6, N-terminal, kept
Q: How did the Kd [1] turn out when B1 was run?
A: 5020 nM and 6370 nM and 6130 nM and 5840 nM

Q: What about the Kd [2] of the same binder?
A: 1540 nM and 1910 nM and 1290 nM and 1580 nM

Q: What about the Kd [3] of the same binder?
A: 573 nM and 823 nM and 735 nM and 710 nM

Q: And the Kd [4]?
A: 1610 nM and 1810 nM and 1590 nM and 1670 nM
